T1: rat calcitonin receptor (rat, UniProt P32214 25-516)
T1 construct: whole, on cells; Membranes of transiently transfected BHK tk'ts 13 cells; also called rCTR; rat calcitonin (a) receptor
T1 sequence (looked up): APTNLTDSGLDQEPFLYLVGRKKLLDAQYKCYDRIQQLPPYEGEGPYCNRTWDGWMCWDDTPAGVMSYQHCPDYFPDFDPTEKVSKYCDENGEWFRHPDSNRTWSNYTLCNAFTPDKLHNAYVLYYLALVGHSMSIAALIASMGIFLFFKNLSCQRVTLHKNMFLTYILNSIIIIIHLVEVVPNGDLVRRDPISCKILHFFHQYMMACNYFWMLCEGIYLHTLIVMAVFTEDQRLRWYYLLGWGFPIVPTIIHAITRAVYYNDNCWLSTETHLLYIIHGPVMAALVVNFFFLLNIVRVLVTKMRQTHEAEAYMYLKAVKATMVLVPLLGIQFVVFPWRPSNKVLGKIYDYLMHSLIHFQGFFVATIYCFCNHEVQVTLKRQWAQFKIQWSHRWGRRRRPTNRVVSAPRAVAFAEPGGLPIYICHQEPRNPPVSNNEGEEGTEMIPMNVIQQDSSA

T2: rat amylin receptor (rat calcitonin receptor + rat RAMP 3) (rat, UniProt P32214 25-516; Q9JJ73 23-147)
T2 construct: whole, on cells; Membranes of transiently transfected BHK tk'ts 13 cells; also called rAmylin-R; rat amylin 3(a) receptor
T2 sequence (looked up) 1: T1 sequence (looked up)
T2 sequence (looked up) 2: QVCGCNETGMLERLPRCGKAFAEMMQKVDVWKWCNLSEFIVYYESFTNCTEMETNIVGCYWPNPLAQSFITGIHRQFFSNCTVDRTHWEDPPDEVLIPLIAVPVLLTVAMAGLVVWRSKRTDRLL

T3: human calcitonin receptor (human, UniProt P30988 25-474)
T3 construct: whole, on cells; Membranes of stably transfected cells; also called hCTR; hCT
T3 sequence (looked up): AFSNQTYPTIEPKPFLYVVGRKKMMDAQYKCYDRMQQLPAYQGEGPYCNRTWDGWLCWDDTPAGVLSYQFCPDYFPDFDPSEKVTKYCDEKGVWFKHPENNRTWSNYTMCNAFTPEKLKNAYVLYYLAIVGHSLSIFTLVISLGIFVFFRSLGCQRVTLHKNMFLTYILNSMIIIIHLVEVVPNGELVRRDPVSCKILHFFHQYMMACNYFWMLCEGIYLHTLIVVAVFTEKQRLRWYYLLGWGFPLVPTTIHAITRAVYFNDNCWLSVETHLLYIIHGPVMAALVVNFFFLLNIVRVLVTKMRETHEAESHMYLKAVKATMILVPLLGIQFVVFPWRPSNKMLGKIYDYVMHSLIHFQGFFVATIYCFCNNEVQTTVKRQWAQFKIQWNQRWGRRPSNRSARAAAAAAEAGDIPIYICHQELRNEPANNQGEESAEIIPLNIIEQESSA

B1: N^ε1-[(4S)-4-carboxy-4-(19-carboxynonadecanoylamino)butanoyl]-[Glu14,Arg17,Pro21,Pro27,His34,Glu35]-h-amylin (peptide)
peptide: K([γGlu-C20 diacid])CNTATCATQRLAEFLRHSSPNFGAIPSSTNVGHETY-NH2
modifications: disulfide 2-7; N-terminus assumed
SMILES: CC[C@H](C)[C@H](NC(=O)[C@H](C)NC(=O)CNC(=O)[C@H](Cc1ccccc1)NC(=O)[C@H](CC(N)=O)NC(=O)[C@@H]1CCCN1C(=O)[C@H](CO)NC(=O)[C@H](CO)NC(=O)[C@H](Cc1c[nH]cn1)NC(=O)[C@H](CCCNC(=N)N)NC(=O)[C@H](CC(C)C)NC(=O)[C@H](Cc1ccccc1)NC(=O)[C@H](CCC(=O)O)NC(=O)[C@H](C)NC(=O)[C@H](CC(C)C)NC(=O)[C@H](CCCNC(=N)N)NC(=O)[C@H](CCC(N)=O)NC(=O)[C@@H](NC(=O)[C@H](C)NC(=O)[C@@H]1CSSC[C@H](NC(=O)[C@@H](N)CCCCNC(=O)CC[C@H](NC(=O)CCCCCCCCCCCCCCCCCCC(=O)O)C(=O)O)C(=O)N[C@@H](CC(N)=O)C(=O)N[C@@H]([C@@H](C)O)C(=O)N[C@@H](C)C(=O)N[C@@H]([C@@H](C)O)C(=O)N1)[C@@H](C)O)C(=O)N1CCC[C@H]1C(=O)N[C@@H](CO)C(=O)N[C@@H](CO)C(=O)N[C@H](C(=O)N[C@@H](CC(N)=O)C(=O)N[C@H](C(=O)NCC(=O)N[C@@H](Cc1c[nH]cn1)C(=O)N[C@@H](CCC(=O)O)C(=O)N[C@H](C(=O)N[C@@H](Cc1ccc(O)cc1)C(N)=O)[C@@H](C)O)C(C)C)[C@@H](C)O
notes: Synthetic acylated analogue of human amylin; also called compound 107
B2: N^ε1-[(4S)-4-carboxy-4-(19-carboxynonadecanoylamino)butanoyl]-[Glu14,Arg17,Pro21,Pro27,Pro34,Arg35]-h-amylin (peptide)
peptide: K([γGlu-C20 diacid])CNTATCATQRLAEFLRHSSPNFGAIPSSTNVGPRTY-NH2
modifications: disulfide 2-7; N-terminus assumed
SMILES: CC[C@H](C)[C@H](NC(=O)[C@H](C)NC(=O)CNC(=O)[C@H](Cc1ccccc1)NC(=O)[C@H](CC(N)=O)NC(=O)[C@@H]1CCCN1C(=O)[C@H](CO)NC(=O)[C@H](CO)NC(=O)[C@H](Cc1c[nH]cn1)NC(=O)[C@H](CCCNC(=N)N)NC(=O)[C@H](CC(C)C)NC(=O)[C@H](Cc1ccccc1)NC(=O)[C@H](CCC(=O)O)NC(=O)[C@H](C)NC(=O)[C@H](CC(C)C)NC(=O)[C@H](CCCNC(=N)N)NC(=O)[C@H](CCC(N)=O)NC(=O)[C@@H](NC(=O)[C@H](C)NC(=O)[C@@H]1CSSC[C@H](NC(=O)[C@@H](N)CCCCNC(=O)CC[C@H](NC(=O)CCCCCCCCCCCCCCCCCCC(=O)O)C(=O)O)C(=O)N[C@@H](CC(N)=O)C(=O)N[C@@H]([C@@H](C)O)C(=O)N[C@@H](C)C(=O)N[C@@H]([C@@H](C)O)C(=O)N1)[C@@H](C)O)C(=O)N1CCC[C@H]1C(=O)N[C@@H](CO)C(=O)N[C@@H](CO)C(=O)N[C@H](C(=O)N[C@@H](CC(N)=O)C(=O)N[C@H](C(=O)NCC(=O)N1CCC[C@H]1C(=O)N[C@@H](CCCNC(=N)N)C(=O)N[C@H](C(=O)N[C@@H](Cc1ccc(O)cc1)C(N)=O)[C@@H](C)O)C(C)C)[C@@H](C)O
notes: Synthetic acylated analogue of human amylin
B3: N^ε1-[(4S)-4-carboxy-4-(19-carboxynonadecanoylamino)butanoyl]-[His14,Arg17,Pro21,Pro27,Pro31,Pro34]-h-amylin (peptide)
peptide: K([γGlu-C20 diacid])CNTATCATQRLAHFLRHSSPNFGAIPSSTPVGPNTY-NH2
modifications: disulfide 2-7; N-terminus assumed
SMILES: CC[C@H](C)[C@H](NC(=O)[C@H](C)NC(=O)CNC(=O)[C@H](Cc1ccccc1)NC(=O)[C@H](CC(N)=O)NC(=O)[C@@H]1CCCN1C(=O)[C@H](CO)NC(=O)[C@H](CO)NC(=O)[C@H](Cc1c[nH]cn1)NC(=O)[C@H](CCCNC(=N)N)NC(=O)[C@H](CC(C)C)NC(=O)[C@H](Cc1ccccc1)NC(=O)[C@H](Cc1c[nH]cn1)NC(=O)[C@H](C)NC(=O)[C@H](CC(C)C)NC(=O)[C@H](CCCNC(=N)N)NC(=O)[C@H](CCC(N)=O)NC(=O)[C@@H](NC(=O)[C@H](C)NC(=O)[C@@H]1CSSC[C@H](NC(=O)[C@@H](N)CCCCNC(=O)CC[C@H](NC(=O)CCCCCCCCCCCCCCCCCCC(=O)O)C(=O)O)C(=O)N[C@@H](CC(N)=O)C(=O)N[C@@H]([C@@H](C)O)C(=O)N[C@@H](C)C(=O)N[C@@H]([C@@H](C)O)C(=O)N1)[C@@H](C)O)C(=O)N1CCC[C@H]1C(=O)N[C@@H](CO)C(=O)N[C@@H](CO)C(=O)N[C@H](C(=O)N1CCC[C@H]1C(=O)N[C@H](C(=O)NCC(=O)N1CCC[C@H]1C(=O)N[C@@H](CC(N)=O)C(=O)N[C@H](C(=O)N[C@@H](Cc1ccc(O)cc1)C(N)=O)[C@@H](C)O)C(C)C)[C@@H](C)O
notes: as for B2
B4: N^ε1-[(4S)-4-carboxy-4-(19-carboxynonadecanoylamino)butanoyl]-[Glu14,Arg17,Pro21,Pro27,Pro34,His35]-h-amylin (peptide)
peptide: K([γGlu-C20 diacid])CNTATCATQRLAEFLRHSSPNFGAIPSSTNVGPHTY-NH2
modifications: disulfide 2-7
notes: as for B2
B5: N^ε1-[(4S)-4-carboxy-4-(19-carboxynonadecanoylamino)butanoyl]-[Glu14,Arg17,Pro21,Pro27,His35]-h-amylin (peptide)
peptide: K([γGlu-C20 diacid])CNTATCATQRLAEFLRHSSPNFGAIPSSTNVGSHTY-NH2
modifications: disulfide 2-7; N-terminus assumed
SMILES: CC[C@H](C)[C@H](NC(=O)[C@H](C)NC(=O)CNC(=O)[C@H](Cc1ccccc1)NC(=O)[C@H](CC(N)=O)NC(=O)[C@@H]1CCCN1C(=O)[C@H](CO)NC(=O)[C@H](CO)NC(=O)[C@H](Cc1c[nH]cn1)NC(=O)[C@H](CCCNC(=N)N)NC(=O)[C@H](CC(C)C)NC(=O)[C@H](Cc1ccccc1)NC(=O)[C@H](CCC(=O)O)NC(=O)[C@H](C)NC(=O)[C@H](CC(C)C)NC(=O)[C@H](CCCNC(=N)N)NC(=O)[C@H](CCC(N)=O)NC(=O)[C@@H](NC(=O)[C@H](C)NC(=O)[C@@H]1CSSC[C@H](NC(=O)[C@@H](N)CCCCNC(=O)CC[C@H](NC(=O)CCCCCCCCCCCCCCCCCCC(=O)O)C(=O)O)C(=O)N[C@@H](CC(N)=O)C(=O)N[C@@H]([C@@H](C)O)C(=O)N[C@@H](C)C(=O)N[C@@H]([C@@H](C)O)C(=O)N1)[C@@H](C)O)C(=O)N1CCC[C@H]1C(=O)N[C@@H](CO)C(=O)N[C@@H](CO)C(=O)N[C@H](C(=O)N[C@@H](CC(N)=O)C(=O)N[C@H](C(=O)NCC(=O)N[C@@H](CO)C(=O)N[C@@H](Cc1c[nH]cn1)C(=O)N[C@H](C(=O)N[C@@H](Cc1ccc(O)cc1)C(N)=O)[C@@H](C)O)C(C)C)[C@@H](C)O
notes: as for B2

Numbered stars: 1 amine (or outer) side, 2 acyl side, 3 side chain; on linkers, the order of the positions; unused ones are H or OH. Bridge positions count the residues as written; N and C are the ends. Side chains are listed from the residue outwards. Ends that are not written are not given here. * marks the point of attachment. C20 diacid = O=C(O)CCCCCCCCCCCCCCCCCCC(=O)*; γGlu = O=C(O)[C@H](CCC(=O)[*:2])N[*:1]

One test addresses T1, rat calcitonin receptor. Put plainly: ratio of IC50 on rat calcitonin receptor to IC50 on rat amylin receptor (reference m40).
Take B1: the “Ratio rCT/rAmylin binding” value came out at 34.6.
Regarding B2, the “Ratio rCT/rAmylin binding” value was determined as 45.5.
The same measure, in the same setting: under B3 stands 72.4; under B4, 52.2.
Same read-out and setting: for B5 the value was 22.7.

The target of the next test is T2, rat amylin receptor (rat calcitonin …). Put plainly: SPA competition with 125I-rat amylin on membranes of BHK tk'ts 13 cells with rat calcitonin receptor + rat RAMP3 (Assay VI).
On to B1, for which the half-maximal inhibitory concentration (IC50) came out at 0.958 nM.
The same measure, in the same setting: under B2 stands 0.339 nM; under B3, 0.125 nM.
The same measure, in the same setting: under B4 stands 0.104 nM; under B5, 1.16 nM.

In a further test the target is T3, human calcitonin receptor. Put plainly: ratio of IC50 on human calcitonin receptor to IC50 on human amylin receptor (reference m42), SPA competition. Summed up: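 Membranes (35 ng/μL final) + SPA beads, 50 mM Hepes pH 7.4 buffer with 1 mM CaCl2, 5 mM MgCl₂, 0.1% OA, 0.02% Tween20; 120 min, 25° C, shaking; centrifuged, counted; IC₅₀ by one-site binding competition.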
In the case of B1, the “Ratio hCT/hAmylin binding” value is 11.1.
Still for that read-out and setting: under B2 stands 38.6; under B3, 24.8.
Still for that read-out and setting: for B4 the value was 21.2; for B5, 26.4.

The target in a further test is T1, rat calcitonin receptor. Put plainly: SPA competition with 125I-calcitonin on membranes of BHK tk'ts 13 cells with rat calcitonin receptor (Assay VIII).
As for B1, the IC50 turned out to be 33.1 nM.
The same measure, in the same setting: for B2 the value was 15.4 nM; for B3, 9.05 nM; for B4, 5.43 nM.
Still for that read-out and setting: for B5 the value was 26.3 nM.

Usually IC50 stands for the point on the concentration scale where inhibition reaches its midpoint.
